The assay has as its target T1, recombinant insulin receptor ecto-domain protein rIR (R&D Systems #1444-IR) (UniProt P06213-2 28-944, limits assumed).
T1 construct: extracellular domain; Bought protein; also called soluble IR ectodomain
As to the kind of experiment: competitive BMEC binding assay: scFv-Fc pre-incubated with soluble ectodomain, then cell surface binding on BMECs.

T1 sequence (P06213 other isoform, or with tags, fused parts or gaps limits assumed): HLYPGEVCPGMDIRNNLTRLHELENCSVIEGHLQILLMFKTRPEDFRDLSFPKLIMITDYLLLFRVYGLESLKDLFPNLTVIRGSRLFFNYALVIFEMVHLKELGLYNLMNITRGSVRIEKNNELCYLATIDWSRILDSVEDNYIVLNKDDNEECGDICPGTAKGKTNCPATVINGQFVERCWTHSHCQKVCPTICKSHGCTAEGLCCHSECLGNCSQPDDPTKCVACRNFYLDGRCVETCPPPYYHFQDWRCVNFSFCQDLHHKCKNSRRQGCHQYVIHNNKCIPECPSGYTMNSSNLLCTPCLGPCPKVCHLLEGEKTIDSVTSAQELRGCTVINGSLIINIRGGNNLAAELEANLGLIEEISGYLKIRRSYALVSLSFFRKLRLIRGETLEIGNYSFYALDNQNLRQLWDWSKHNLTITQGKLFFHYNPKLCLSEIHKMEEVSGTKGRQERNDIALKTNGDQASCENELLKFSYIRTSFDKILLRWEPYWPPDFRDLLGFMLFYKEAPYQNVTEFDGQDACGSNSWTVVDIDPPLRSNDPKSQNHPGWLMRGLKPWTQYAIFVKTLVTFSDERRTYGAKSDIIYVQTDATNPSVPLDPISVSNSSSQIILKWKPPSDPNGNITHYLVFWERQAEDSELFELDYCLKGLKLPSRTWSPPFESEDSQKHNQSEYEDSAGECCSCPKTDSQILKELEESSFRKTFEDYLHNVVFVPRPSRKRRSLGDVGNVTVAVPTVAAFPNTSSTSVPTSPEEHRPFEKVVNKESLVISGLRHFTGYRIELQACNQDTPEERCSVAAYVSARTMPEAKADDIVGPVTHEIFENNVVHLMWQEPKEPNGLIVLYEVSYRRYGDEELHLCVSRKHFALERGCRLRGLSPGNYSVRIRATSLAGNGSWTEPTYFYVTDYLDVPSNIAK

B1: 17-scFv-Fc (Fc fusion)
chain: QVQLLQSAGALVQPGGSLRLSCAASGFTFSSSTMHWVRQAPGKGLEWVAVVSYDGNTQYYADSVKGRFTISRDNSKNTLSLQMNNLRAEDTAVYYCAGLWGSLLGYFQHWGQGTLVTVSSGGGGSGGGGSGGGGSDIQMTQSPSFLSASVGDRVTITCRASQGVNNYLAWYQQKPGKAPKLLIYAASTLQSGVPSSFSGSGSGTEFTLTISSLQPEDFATYFCQQAHSFPPTFGGGTKLEIKR
notes: scFv linked directly to rabbit IgG Fc, made in HEK293F cells; dimer; also called clone 17 scFv-Fc; not shown: rabbit IgG Fc region (pIRES-rabbit Fc vector)
For the molecule B1, the binding result was “no binding”.

B2: 46.1-scFv-Fc (Fc fusion)
chain: QVQLQESGGGLAQPGGSLRLSCAASGFTFSGYWMHWVRQAPGKGLVWVSRIKGDGTDIEYADSVKGRFTISRDNAKNTLYLQMNSLRAEDTAVYYCARDLRQTHWFDSWGQGTLVTVSSGGGGSGGGGSGGGGSQSALTQDPAVSVALGQTVRITCQGDSLRSYYASWYQQKPGQAPVLVMYGENSRPSGIPDRFSGSNSGNTASLIITGAQAEDEADYYCSSRDTSGNHVLFGGGTKLTVLG
notes: scFv linked directly to rabbit IgG Fc, made in HEK293F cells; dimer; also called clone 46.1 scFv-Fc; not shown: rabbit IgG Fc region (pIRES-rabbit Fc vector)
Take B2: the binding result was “no binding”.

The record behind these values is patent US20230331835A1 (WISCONSIN ALUMNI RESEARCH FOUNDATION, published 2023).
